Assays:
[1] = biological target: CU44 HA ectodomain double mutant F88E/V91W of HA2 fused to the foldon (before the foldon cleavage) (influenza A virus H1N1 A/Thailand/CU44/2006 | not stated); experiment: SEC; foldon present (pre-thrombin); Superdex 200 in 50 mM Tris (pH 8.0), 100 mM NaCl, 0.5 ml/min; Fig. 1C
[2] = biological target: CU44 HA ectodomain mutant F88E of HA2 fused to the foldon (pre-thrombin) (influenza A virus H1N1 A/Thailand/CU44/2006 | not stated); experiment: as above
[3] = biological target: CU44 HA ectodomain mutant G47E of HA2, foldon removed by thrombin (influenza A virus H1N1 A/Thailand/CU44/2006); experiment: SEC; […] (pH 8.0), 100 mM NaCl, 0.5 ml/min; […]
[4] = biological target: CU44 HA ectodomain mutant R75L of HA2, foldon removed by thrombin (influenza A virus H1N1 A/Thailand/CU44/2006); experiment: SEC; […] (pH 8.0), 100 mM NaCl, 0.5 ml/min; […]
[5] = biological target: CU44 HA ectodomain mutant R106E of HA2, foldon removed by thrombin (influenza A virus H1N1 A/Thailand/CU44/2006); experiment: SEC; […] (pH 8.0), 100 mM NaCl, 0.5 ml/min; […]
[6] = biological target: CU44 HA ectodomain mutant S199F of HA1, foldon removed by thrombin (influenza A virus H1N1 A/Thailand/CU44/2006); experiment: SEC; […] (pH 8.0), 100 mM NaCl, 0.5 ml/min; […]
[7] = biological target: CU44 HA ectodomain mutant V91W of HA2 fused to the foldon (pre-thrombin) (influenza A virus H1N1 A/Thailand/CU44/2006 | not stated); experiment: SEC; foldon present (pre-thrombin); Superdex 200 in 50 mM Tris (pH 8.0), 100 mM NaCl, 0.5 ml/min; Fig. 1C
[8] = biological target: CU44 wild-type HA ectodomain (A/Thailand/CU44/2006), foldon removed by thrombin (influenza A virus H1N1 A/Thailand/CU44/2006); experiment: SEC; […] (pH 8.0), 100 mM NaCl, 0.5 ml/min; […]

CU44 HA ectodomain double mutant F88E/V91W of HA2 fused to the foldon (before the foldon cleavage)
stoichiometry N [1]: 3

CU44 HA ectodomain mutant F88E of HA2 fused to the foldon (pre-thrombin)
stoichiometry N [2]: 3

CU44 HA ectodomain mutant G47E of HA2, foldon removed by thrombin (domain or fragment)
stoichiometry N [3]: 3

CU44 HA ectodomain mutant R75L of HA2, foldon removed by thrombin (domain or fragment)
stoichiometry N [4]: 3

CU44 HA ectodomain mutant R106E of HA2, foldon removed by thrombin (domain or fragment)
stoichiometry N [5]: 3

CU44 HA ectodomain mutant S199F of HA1, foldon removed by thrombin (domain or fragment)
stoichiometry N [6]: 3

CU44 HA ectodomain mutant V91W of HA2 fused to the foldon (pre-thrombin)
stoichiometry N [7]: 3

CU44 wild-type HA ectodomain (A/Thailand/CU44/2006), foldon removed by thrombin (domain or fragment)
stoichiometry N [8]: 3
